Molecular target: linear di-Ub (M1-linear from UbiQ) (UniProt P0CG47)
Assay: SPR

B1: His-tagged Ufd2p (enzyme)
chain: MTAIEDILQITTDPSDTRGYSLLKSEEVPQGSTLGVDFIDTLLLYQLTENEKLDKPFEYLNDCFRRNQQQKRITKNKPNAESLHSTFQEIDRLVIGYGVVALQIENFCMNGAFINYITGIVSNVNSYTDFLSQIIQRAILEGTALDLLNAVFPTLLEYCNKHVSHFDLNESVIYNNVLTIFELFVTFKPIAEIFTKIDGFFADYSCKPQDFERKTILGPILSLSPIEAAVAIRNYGDNLLRSKQQTAMIHESLQAEHKVVIDRLFFIVDKLVRGSLNSRTDMISYFAHIANKNHLRRADHPPFKELSSNGFMSNITLLLVRFSQPFLDISYKKIDKIDANYFNNPSLFIDLSGETRLNSDFKEADAFYDKNRKTADSKPNFISDCFFLTLTYLHYGLGGTLSFEEKMGSEIKALKEEIEKVKKIAANHDVFARFITAQLSKMEKALKTTESLRFALQGFFAHRSLQLEVFDFICGASTFLIRVVDPEHEFPFKQIKLPLIPDQIGVENVDNADFLRAHAPVPFKYYPEFVVEGPVNYSLYISKYQTSPIFRNPRLGSFVEFTTMVLRCPELVSNPHLKGKLVQLLSVGAMPLTDNSPGFMMDIFEHDELVNKNLLYALLDFYVIVEKTGSSSQFYDKFNSRYSISIILEELYYKIPSYKNQLIWQSQNNADFFVRFVARMLNDLTFLLDEGLSNLAEVHNIQNELDNRARGAPPTREEEDKELQTRLASASRQAKSSCGLADKSMKLFEIYSKDIPAAFVTPEIVYRLASMLNYNLESLVGPKCGELKVKDPQSYSFNPKDLLKALTTVYINLSEQSEFISAVAKDERSFNRNLFVRAVDILGRKTGLASPEFIEKLLNFANKAEEQRKADEEEDLEYGDVPDEFLDPLMYTIMKDPVILPASKMNIDRSTIKAHLLSDSTDPFNRMPLKLEDVTPNEELRQKILCFKKQKKEEAKHKASE
  binding result: binds
